For orientation: kcat means the number of substrate molecules converted per active site and unit of time at saturation. The Km is the substrate concentration at which the rate is half of its maximum.

From patent publication US20040126856A1, “Factor ixa: factor Vllla interaction and methods therefor” (priority 2004, published 2004) come the findings set out here.

For one series, the target named is T1, factor X (Homo sapiens, UniProt P00742).
T1 construct: Normal plasma factor IX (IXNP) and factor X was isolated as previously described; from tissue; host or cells: normal plasma
In words: Activation of factor X by factor IXa proteins in the presence of only Ca2+ and PL (absence of factor VIIIa). The series is classed as biochemical. Particulars: 20 nM factor IXa; for kcat: 5 mM CaCl2, absence of factor VIIIa; for Km: 5 mM CaCl2, factor X 25 nM to 3 μM, absence of factor VIIIa. On the procedure:
Activation of Factor X by Each Factor IXa Protein in the Presence of Only Ca^2+ and PL.
For these studies, each factor IX was activated with factor XIa/Ca^2+ as described above. For factor X activation studies, the concentration of factor IXa was kept at 20 nM and the buffer used was TBS/BSA (TBS with […] BSA) containing 5 mM CaCl2. The concentrations of PL used were 10, 25, 50, and 100 μM in different sets of experiments. The concentration of factor X at each PL concentration ranged from 25 nM to 3 μM. The activations were carried out for 5-15 min and the amount of factor Xa generated was measured by hydrolysis of S-2222 as described previously (Mather and Bajaj, 1999; Mather et al., 1997). The Km and kcat values were obtained using the program GraFit from Erithacus Software.

The target of the next series is T2, A2 558-565 peptide (Homo sapiens, UniProt P00451).
T2 construct: made in house; host or cells: chemical synthesis (synthetic peptide)
In words: Apparent Kdpeptide of binding of each factor IXa to the A2 558-565 peptide. In kind it is biochemical. Particulars: for Kd: values from FIG. 5, A2 558-565 peptide, read-out: App Kdpeptide; for ΔG°peptide: ΔG° = RTlnKd, 298 Kelvin. The procedure: Determination of the Apparent Kdpeptide of Binding of Each Factor IXa to the A2 558-565 Peptide.
The apparent Kd (termed Kdpeptide) for binding of each factor IXa to the A2 558-565 peptide was determined by its ability to inhibit the respective IXa:A2 subunit interaction as measured by reduction in the rate of factor X activation in the tenase system. The reaction mixtures for both IXaWT and IXaPCEGF1 contained 100 nM factor IXa, 30 nM A2 subunit, 250 nM factor X, and 25 μM PL in TBS/BSA, pH 7.5 with 5 mM CaCl2. The reaction mixture for IXaR333Q contained 300 nM factor IXa instead of 100 nM used for IXaWT or IXaPCEGF1; concentrations of other components were the same. The amount of factor Xa generated was determined by hydrolysis of S-2222. The IC50 values were obtained using Eq. 2. Here, y is the rate of factor Xa formation in the presence of a given concentration of the A2 558-565 peptide represented by x, and a is the maximum rate of factor Xa formation in the absence of the A2 peptide. Eq. 3 was then used to obtain the apparent Kdpeptide values. In this context, A is the concentration of IXaWT, IXaPCEGF1, or IXaR333Q, and EC50 is the apparent KdA2 for the respective IXa:A2 subunit interaction.

T1 sequence (P00742 183-488 limits assumed): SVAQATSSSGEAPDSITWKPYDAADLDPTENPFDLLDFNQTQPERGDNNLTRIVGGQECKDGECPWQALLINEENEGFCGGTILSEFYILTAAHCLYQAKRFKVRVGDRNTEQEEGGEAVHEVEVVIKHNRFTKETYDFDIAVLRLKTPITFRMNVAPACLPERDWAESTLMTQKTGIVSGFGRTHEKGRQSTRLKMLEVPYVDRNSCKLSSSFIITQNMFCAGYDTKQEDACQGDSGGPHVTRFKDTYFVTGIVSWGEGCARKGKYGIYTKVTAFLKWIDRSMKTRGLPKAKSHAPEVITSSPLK
T1 sequence (P00742 41-179 limits assumed): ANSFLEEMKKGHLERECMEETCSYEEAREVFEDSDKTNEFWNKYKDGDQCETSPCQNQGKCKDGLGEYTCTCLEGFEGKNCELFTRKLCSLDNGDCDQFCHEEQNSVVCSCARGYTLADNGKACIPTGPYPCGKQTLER

As to “IXaR333Q: activated factor IX point mutant in which Arg333 is replaced by Gln”, in the series with factor X (PL 10 μM), the kcat was 0.0002 s⁻¹ and the Km was found to be 0.11 µM. Besides, in the series with factor X (PL 25 μM), the catalytic constant (kcat) is 0.0003 s⁻¹ and the Km turned out to be 0.18 µM. In the series with factor X (PL 50 μM), the turnover number (kcat) was 0.0005 s⁻¹ and the Km is 0.23 µM. Moreover, in the series with factor X (PL 100 μM), the turnover number (kcat) stood at 0.000667 s⁻¹ and the Km was determined as 0.61 µM. In addition, in the series with A2 558-565 peptide, the “Change in ΔG°peptide between the mutant and WT” value amounted to 1.62 kcal/mol; the “Fold-change in apparent Kdpeptide (mutant/WT)” value is approximately 15; the Kd turned out to be 62 ± 9 µM; the “ΔG°peptide” value was determined as 5.74 kcal/mol.

On to “IXaWT: activated recombinant wild-type factor IX (IXWT)”, for which the catalytic constant (kcat) worked out at 0.000167 s⁻¹ with factor X (PL 10 μM), 0.0002 s⁻¹ with factor X (PL 25 μM), 0.0004 s⁻¹ with factor X (PL 50 μM) and 0.000633 s⁻¹ with factor X (PL 100 μM). For the same substance, the Km with factor X (PL 10 μM) was determined as 0.09 µM; with factor X (PL 25 μM), 0.12 µM; in the series with factor X (PL 50 μM), 0.24 µM; with factor X (PL 100 μM), 0.57 µM. Besides, the Kd with A2 558-565 peptide is 4 ± 1 µM. Further, the “ΔG°peptide” value in the series with A2 558-565 peptide is 7.36 kcal/mol.
